Starred links: 1 amine or outer side, 2 acyl side, 3 side chain; linkers in the order of their positions; H or OH if unused. Positions of bridges follow the written chain, without caps; N, C: chain ends. Non-standard residues stand in square brackets, D forms with d. Primed or numbered codes have the meaning given here. PyrS2″ = (S)-3-amino-1-((pent-4-en-1-yloxy)carbonyl)pyrrolidine-3-carboxylic acid (stapling residue), C=CCCCOC(=O)N1CC[C@@](N[*:1])(C(=O)[*:2])C1; B5(4) = 2,2-bis(4-pentenyl)glycine = 2-amino-2-(pent-4-en-1-yl)hept-6-enoic acid (stitching residue), C=CCCCC(CCCC=C)(N[*:1])C(=O)[*:2]; B5(5) = 2,2-bis(4-pentenyl)glycine, 2-amino-2-(pent-4-en-1-yl)hept-6-enoic acid (stitching residue), C=CCCCC(CCCC=C)(N[*:1])C(=O)[*:2]; PyrS2 = (S)-3-amino-1-((pent-4-en-1-yloxy)carbonyl)pyrrolidine-3-carboxylic acid, C=CCCCOC(=O)N1CC[C@@](N[*:1])(C(=O)[*:2])C1; MorphAsn = (S)-2-amino-4-morpholino-4-oxobutanoic acid, O=C(C[C@H](N[*:1])C(=O)[*:2])N1CCOCC1; B5 = 2-amino-2-(pent-4-en-1-yl)hept-6-enoic acid, C=CCCCC(CCCC=C)(N[*:1])C(=O)[*:2]; Phe(3-CF3) = N[C@@H](Cc1cccc(C(F)(F)F)c1)C(=O)O; Phe(3-COOH) = N[C@@H](Cc1cccc(C(=O)O)c1)C(=O)O; Phe(2-CF3) = N[C@@H](Cc1ccccc1C(F)(F)F)C(=O)O; Phe(3,5-F2) = N[C@@H](Cc1cc(F)cc(F)c1)C(=O)O; S7 = C[C@@](CCCCCC=[*:3])(N[*:1])C(=O)[*:2]; Bta = N[C@@H](Cc1csc2ccccc12)C(=O)O; Lys(iPr) = CC(C)NCCCC[C@H](N)C(=O)O; αAllylPro = C=CC[C@@]1(C(=O)O)CCCN1; tBuAla = CC(C)(C)C[C@H](N)C(=O)O; 3Thi = N[C@@H](Cc1ccsc1)C(=O)O; Cha = N[C@@H](CC1CCCCC1)C(=O)O; S8 = C=CCCCCCC[C@](C)(N)C(=O)O; Aib = CC(C)(N)C(=O)O
T1: beta-catenin in DLD1 TCF/LEF luciferase reporter cells (UniProt P35222 1-781)
T1 sequence (looked up): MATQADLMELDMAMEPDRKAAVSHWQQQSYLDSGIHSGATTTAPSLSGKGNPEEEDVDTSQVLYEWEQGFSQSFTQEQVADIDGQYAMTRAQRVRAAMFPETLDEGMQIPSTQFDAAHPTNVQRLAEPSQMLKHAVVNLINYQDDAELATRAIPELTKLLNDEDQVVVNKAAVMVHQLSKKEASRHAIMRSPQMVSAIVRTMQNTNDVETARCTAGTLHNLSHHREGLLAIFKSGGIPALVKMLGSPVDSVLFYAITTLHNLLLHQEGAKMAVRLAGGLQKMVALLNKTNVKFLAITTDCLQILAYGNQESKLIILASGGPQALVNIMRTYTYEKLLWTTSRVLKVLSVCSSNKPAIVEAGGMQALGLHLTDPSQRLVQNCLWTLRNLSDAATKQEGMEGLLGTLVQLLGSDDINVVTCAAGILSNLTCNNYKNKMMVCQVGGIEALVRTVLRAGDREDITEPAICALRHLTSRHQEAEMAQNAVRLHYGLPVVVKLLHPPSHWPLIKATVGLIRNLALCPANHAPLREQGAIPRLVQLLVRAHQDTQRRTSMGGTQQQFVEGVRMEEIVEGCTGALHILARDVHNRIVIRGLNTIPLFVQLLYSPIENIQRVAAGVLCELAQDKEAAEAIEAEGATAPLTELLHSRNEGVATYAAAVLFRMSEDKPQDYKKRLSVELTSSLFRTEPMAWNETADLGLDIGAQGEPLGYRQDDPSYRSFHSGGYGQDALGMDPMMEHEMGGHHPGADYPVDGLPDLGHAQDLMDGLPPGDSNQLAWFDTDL

T2: B-cat-Halo (UniProt P35222 1-781)
T2 sequence (looked up): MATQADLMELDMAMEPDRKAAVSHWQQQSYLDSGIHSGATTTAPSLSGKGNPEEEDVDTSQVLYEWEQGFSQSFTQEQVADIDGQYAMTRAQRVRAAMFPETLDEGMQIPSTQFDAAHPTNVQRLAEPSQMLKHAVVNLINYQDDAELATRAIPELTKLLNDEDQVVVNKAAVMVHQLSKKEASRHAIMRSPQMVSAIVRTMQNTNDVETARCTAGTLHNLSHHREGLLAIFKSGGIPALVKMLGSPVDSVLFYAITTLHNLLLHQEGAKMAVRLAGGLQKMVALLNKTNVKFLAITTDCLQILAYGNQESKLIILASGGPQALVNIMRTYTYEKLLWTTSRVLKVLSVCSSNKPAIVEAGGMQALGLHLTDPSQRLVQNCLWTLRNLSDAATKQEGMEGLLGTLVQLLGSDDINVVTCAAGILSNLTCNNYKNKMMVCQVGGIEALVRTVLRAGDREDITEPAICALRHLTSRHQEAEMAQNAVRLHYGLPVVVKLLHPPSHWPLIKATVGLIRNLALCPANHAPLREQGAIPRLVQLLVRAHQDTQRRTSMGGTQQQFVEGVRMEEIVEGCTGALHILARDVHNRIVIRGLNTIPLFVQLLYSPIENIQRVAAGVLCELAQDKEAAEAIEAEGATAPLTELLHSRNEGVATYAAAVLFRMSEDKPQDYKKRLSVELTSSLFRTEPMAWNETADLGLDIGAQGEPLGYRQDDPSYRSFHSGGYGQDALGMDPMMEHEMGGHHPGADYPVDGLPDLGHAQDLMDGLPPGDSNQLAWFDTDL

T3: full-length beta-Catenin (Uniprot ID P35222) (Homo sapiens (Human), UniProt P35222 2-781)
T3 construct: The AlphaScreen assay used a Histidine (Nickel Chelate) detection kit, so a His tag is likely, but no tag is described; also called B-Catenin; bCat
T3 sequence: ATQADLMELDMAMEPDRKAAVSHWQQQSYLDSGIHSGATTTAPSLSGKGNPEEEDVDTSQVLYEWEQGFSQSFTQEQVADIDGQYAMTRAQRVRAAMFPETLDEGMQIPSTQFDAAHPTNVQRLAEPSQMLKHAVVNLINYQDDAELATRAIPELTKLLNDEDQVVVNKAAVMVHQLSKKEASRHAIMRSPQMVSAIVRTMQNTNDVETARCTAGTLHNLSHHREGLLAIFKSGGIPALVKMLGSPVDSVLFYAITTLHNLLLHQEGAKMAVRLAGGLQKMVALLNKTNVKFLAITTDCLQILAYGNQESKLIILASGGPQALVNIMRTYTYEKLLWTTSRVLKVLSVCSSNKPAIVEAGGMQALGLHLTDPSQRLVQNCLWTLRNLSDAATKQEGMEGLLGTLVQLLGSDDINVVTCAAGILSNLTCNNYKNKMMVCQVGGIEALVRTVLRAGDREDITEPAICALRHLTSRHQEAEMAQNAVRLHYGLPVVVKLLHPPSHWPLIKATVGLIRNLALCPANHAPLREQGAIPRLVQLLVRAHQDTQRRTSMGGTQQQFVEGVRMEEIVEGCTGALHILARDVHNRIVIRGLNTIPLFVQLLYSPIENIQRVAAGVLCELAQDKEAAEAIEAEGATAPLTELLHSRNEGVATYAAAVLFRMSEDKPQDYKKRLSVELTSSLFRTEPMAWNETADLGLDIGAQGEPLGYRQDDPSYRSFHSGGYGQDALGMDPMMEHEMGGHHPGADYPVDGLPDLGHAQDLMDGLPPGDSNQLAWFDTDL

T4: full-length beta-Catenin (Uniprot ID P35222) (Homo sapiens (Human), UniProt P35222 2-781)
T4 construct: also called B-Catenin; bCat
T4 sequence: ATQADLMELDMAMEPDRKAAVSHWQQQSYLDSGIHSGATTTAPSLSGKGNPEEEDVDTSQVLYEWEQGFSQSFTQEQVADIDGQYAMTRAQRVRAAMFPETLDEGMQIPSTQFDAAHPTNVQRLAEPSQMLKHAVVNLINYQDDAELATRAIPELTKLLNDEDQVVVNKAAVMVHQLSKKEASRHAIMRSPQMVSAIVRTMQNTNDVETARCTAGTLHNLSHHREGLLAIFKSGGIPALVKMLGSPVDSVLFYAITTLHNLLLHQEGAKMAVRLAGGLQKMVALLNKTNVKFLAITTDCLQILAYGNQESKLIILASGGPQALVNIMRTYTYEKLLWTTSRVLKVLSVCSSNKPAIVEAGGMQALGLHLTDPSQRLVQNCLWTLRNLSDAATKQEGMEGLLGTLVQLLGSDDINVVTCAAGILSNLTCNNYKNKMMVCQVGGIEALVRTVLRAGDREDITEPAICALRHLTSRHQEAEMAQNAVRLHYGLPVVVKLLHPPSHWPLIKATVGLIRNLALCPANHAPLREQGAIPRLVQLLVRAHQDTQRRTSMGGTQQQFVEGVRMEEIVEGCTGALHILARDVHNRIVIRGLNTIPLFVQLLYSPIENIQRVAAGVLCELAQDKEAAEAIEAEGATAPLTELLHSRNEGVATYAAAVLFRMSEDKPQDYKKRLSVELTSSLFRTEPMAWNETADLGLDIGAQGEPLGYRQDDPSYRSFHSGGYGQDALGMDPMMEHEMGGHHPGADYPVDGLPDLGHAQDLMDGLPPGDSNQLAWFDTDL


Tests used:
[1] = biological target: T1, beta-catenin in DLD1 TCF/LEF luciferase …; test: cell-based or functional assay
B-cat-Halo = biological target: T2, B-cat-Halo; test: cell-based or functional assay
[2] = biological target: T3, full-length beta-Catenin (Uniprot ID …); test: AlphaScreen competition: full-length beta-catenin + biotin-TCF4(10-53) probe, peptide titrated
Method: (§1) Equal volume of the titrated peptide was added to the plate and incubated for 15 minutes at 20° C. Then 4 uL of donor and 4 uL acceptor beads at 10 ug/mL were added to the plate, for a 16 uL reaction pool and protected from light for 60 minutes at 20° C. prior to read. Reads were performed on a CLARIOstar plate reader (BMG Labtech) in duplicate, and data were fitted to a 1:1 binding model with hill slope using an in-house script. All provided concentrations are final concentrations.

[3] = biological target: T3, full-length beta-Catenin (Uniprot ID …); test: fluorescence polarization competition: full-length beta-catenin + 5FAM-TCF4(10-53) probe, peptide titrated
Method: (§2) The plate was incubated protected from light for 60 minutes at 20° C. prior to read. Reads were performed on a CLARIOstar plate reader (BMG Labtech) in duplicate, and data were fitted to a 1:1 binding model with hill slope using an in-house script. All provided concentrations are final concentrations.

[4] = biological target: T4, full-length beta-Catenin (Uniprot ID …); test: Alphascreen competition; biotin-TCF4(10-53) probe with full-length beta-catenin
Method: as §1

[5] = biological target: T4, full-length beta-Catenin (Uniprot ID …); test: fluorescence polarization competition; 5FAM-TCF4(10-53) probe with full-length beta-catenin
Method: as §2

EC50 [2] | EC50 [3] | EC50 [4] | EC50 [5] | Binder | also measured
131 nM | 2860 nM | – | – | Ac-[αAllylPro]DA[B5(4)]DEAA[Phe(3,5-F2)]V[S8]FWQ-NH2 (staple 1-4, 4-11, Stapled peptide composition; also called Ac-PL3-Asp-Ala-B5-Asp-Glu-Ala-Ala-35FF-Val-S8-Phe-Trp-Gln-NH2) [I-220] | –
– | – | 5090 nM | 5 µM | Ac-[αAllylPro]DA[B5(4)]DEAAFV[S7]FWQ-NH2 (staple 1-4, 4-11, Stitched (two-staple) peptide composition) [I-132] | –
– | – | 569 nM | 3.06 µM | XDAXDNAAFVXFWQ (not fully specified; as printed: Ac-PL3-Asp-Ala-B5-Asp-Asn-Ala-Ala-Phe-Val-S8-Phe-Trp-Gln-NH2; staples PL3(1)-B5(4) and B5(4)-S8(11), Stitched (two-staple) peptide composition) [I-125] | –
90 nM | 1960 nM | – | – | Ac-[αAllylPro]DA[B5(4)]DEAAXV[S8]FWQ-NH2 (staple 1-4, 4-11; not fully specified (residue 9); printed as Ac-PL3-Asp-Ala-B5-Asp-Glu-Ala-Ala-MeTyr-Val-S8-Phe-Trp-Gln-NH2, Stapled peptide composition; also called Ac-PL3-Asp-Ala-B5-Asp-Glu-Ala-Ala-MeTyr-Val-S8-Phe-Trp-Gln-NH2) [I-217] | –

Second part, the binder before the results:

Binder | EC50 [2] | EC50 [3] | EC50 [4] | EC50 [5] | also measured
Ac-[αAllylPro]D[tBuAla][B5(5)]NT[Aib]AFN[PyrS2″][3Thi][Bta]T-NH2 (staple 1-4, 4-11) [I-2416] | – | – | – | – | DLD1 4% Abs IC50 [1]: > 20 µM
Ac-[αAllylPro]D[tBuAla][B5(5)]D[Phe(3-COOH)]AAFL[PyrS2][Phe(2-CF3)][Bta]QFA-NH2 (staple 1-4, 4-11) [I-2400] | – | – | – | – | DLD1 4% Abs IC50 [1]: 0.8 µM
Ac-[αAllylPro]N[Cha][B5(5)]DQ[Lys(iPr)]AFL[PyrS2″]F[Bta][MorphAsn]-NH2 (staple 1-4, 4-11) [I-2426] | – | – | – | – | NanoBRET Abs IC50 (B-cat-Halo): > 20 µM
Ac-[αAllylPro]N[Cha][B5(5)]DQQAFL[PyrS2″]F[Bta]K-NH2 (staple 1-4, 4-11) [I-2421] | – | – | – | – | NanoBRET Abs IC50 (B-cat-Halo): > 20 µM
Ac-[αAllylPro]DA[B5(4)]DEAA[Phe(3,5-F2)]V[S8]FWQ-NH2 (staple 1-4, 4-11, Stapled peptide composition; also called Ac-PL3-Asp-Ala-B5-Asp-Glu-Ala-Ala-35FF-Val-S8-Phe-Trp-Gln-NH2) [I-219] | 131 nM | 2860 nM | – | – | –
Ac-[αAllylPro]DA[B5(4)]DEAAFV[S8]FWQ-NH2 (staple 1-4, 4-11, Stitched (two-staple) peptide composition) [I-123] | – | – | 444 nM | 2.11 µM | –
Ac-[αAllylPro]DA[B5(5)]DQAAFV[S8]FWQ-NH2 (staple 1-4, 4-11, Stitched (two-staple) peptide composition) [I-127] | – | – | 552 nM | 4.84 µM | –
Ac-[αAllylPro]D[tBuAla][B5(5)]D[Phe(3-COOH)]AAFL[PyrS2][Phe(2-CF3)][Bta]QVA-NH2 (staple 1-4, 4-11) [I-2401] | – | – | – | – | DLD1 4% Abs IC50 [1]: 0.8 µM
Ac-[αAllylPro]DA[B5]DDAAFV[S8][Phe(3-CF3)]WQ-NH2 (staple 1-4, 4-11, Stapled peptide composition; also called Ac-PL3-Asp-Ala-B5-Asp-Asp-Ala-Ala-Phe-Val-S8-3F3MeF-Trp-Gln-NH2) [I-251] | 1200 nM | 5000 nM | – | – | –

From patent publication US20240116985A1 (published 2024)
